Target: IL-2Rαβγ on mouse CTLL-2 cells (mouse) (UniProt P01590)
Assay: cell-based or functional assay

Sequence of UniProt P01590 (P01590 22-268, chain 1 of 3): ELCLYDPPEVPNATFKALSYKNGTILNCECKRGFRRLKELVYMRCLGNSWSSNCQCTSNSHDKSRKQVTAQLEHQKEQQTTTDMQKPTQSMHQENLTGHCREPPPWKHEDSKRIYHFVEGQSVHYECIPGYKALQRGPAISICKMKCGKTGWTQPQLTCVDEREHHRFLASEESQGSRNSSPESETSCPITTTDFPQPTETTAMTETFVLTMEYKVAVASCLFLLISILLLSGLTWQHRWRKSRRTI
Sequence of UniProt P01590 (P16297 27-539, chain 2 of 3, further chain): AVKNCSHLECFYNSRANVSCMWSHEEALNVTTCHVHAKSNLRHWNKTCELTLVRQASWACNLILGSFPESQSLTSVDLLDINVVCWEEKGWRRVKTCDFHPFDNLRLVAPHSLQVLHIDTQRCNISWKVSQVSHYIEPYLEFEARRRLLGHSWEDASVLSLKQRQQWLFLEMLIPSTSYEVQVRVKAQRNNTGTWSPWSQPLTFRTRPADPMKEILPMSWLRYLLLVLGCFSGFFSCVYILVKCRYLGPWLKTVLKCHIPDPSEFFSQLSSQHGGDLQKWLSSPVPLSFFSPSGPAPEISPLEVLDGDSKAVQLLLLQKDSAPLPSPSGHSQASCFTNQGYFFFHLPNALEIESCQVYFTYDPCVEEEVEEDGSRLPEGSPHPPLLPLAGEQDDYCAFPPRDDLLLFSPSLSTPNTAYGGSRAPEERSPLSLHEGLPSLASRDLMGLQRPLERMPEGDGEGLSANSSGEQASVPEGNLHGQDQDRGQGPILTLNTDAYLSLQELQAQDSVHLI
Sequence of UniProt P01590 (P34902 23-369, chain 3 of 3, further chain): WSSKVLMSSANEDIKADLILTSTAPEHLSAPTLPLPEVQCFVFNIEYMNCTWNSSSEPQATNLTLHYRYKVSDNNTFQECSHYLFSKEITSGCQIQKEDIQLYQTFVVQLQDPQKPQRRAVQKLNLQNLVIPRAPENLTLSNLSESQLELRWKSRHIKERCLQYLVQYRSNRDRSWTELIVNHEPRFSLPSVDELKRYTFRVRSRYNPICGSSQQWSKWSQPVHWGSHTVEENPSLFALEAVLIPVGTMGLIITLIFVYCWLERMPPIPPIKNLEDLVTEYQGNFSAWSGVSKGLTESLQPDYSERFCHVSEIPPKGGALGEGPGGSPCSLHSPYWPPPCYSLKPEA

## reference rhIL-2 (purchased from Beijing Solarbio Science & Technology Co., Ltd., catalog number: P00020) (from UniProt P60568 21-153) (ligand)
  EC50 (ng/mL) of STAT5 phosphorylation assay (CTLL-2 cells): 0.38 ng/mL
  EC50 (ng/mL), STAT5 phosphorylation assay (CTLL-2 cells): 0.18 ng/mL
